Test results reported in publication PMC12775124, “CUL4A-DDB1-DCAF10 is an N-recognin for N-terminally acetylated Src kinases” (Nature Communications, 2026).

How the values were obtained:
[1] = test system: THOC7; experiment: THOC7 level after FLAG-DCAF10 overexpression; assay type: cell-based, human; conditions: HeLa, NMT1/2 KD 72 h, FLAG-DCAF10 overexpression 24 h
Experimental: (§1) 124 Supplementary Fig. 5. NMT1/2 knockdown leads to an increased turnover of SFKs
(§2) 125 and overexpression of DCAF10 reduces SFK levels after NMT1/2 knockdown.
(§3) 126 a) HeLa cells were treated with NMT1/2 siRNA for 72 h or left untreated in combination
(§4) 127 with FLAG-DCAF10 overexpression for 24 h. Representative WBs are shown. b-c) Left:
(§5) 128 WB quantifications with and without NMT1/2 siRNA of Lyn (b) and THOC7 (c)
(§6) Right: Fold change of Lyn (b) and THOC7 (c) after DCAF10
(§7) 130 overexpression. Untreated: purple; with NMT1/2 RNAi: blue. Individual data points are
(§8) 131 indicated (n = 2 or 3 independent biological replicates). MG132 = proteasome inhibitor;
(§9) 132 CHX = cycloheximide translational inhibitor. d) HeLa cells were treated for 72 h with and
(§10) 133 without NMT1/2 siRNA and treated with cycloheximide or MG132 for the indicated
(§11) 134 periods of time. Representative WBs are shown. Filled circles indicate treatment; empty
(§12) 135 circles indicate no treatment. e-h) Fold-change analysis of protein expression levels under
(§13) 136 the indicated conditions. Left: fold change after 8 h cycloheximide treatment of (e) Lyn,
(§14) 137 (f) Fyn, (g) Src and (h) THOC7. Right: fold change after 4 h MG132 treatment of (e) Lyn,
(§15) Untreated: purple; with NMT1/2 siRNA: blue (n = 3 […]
(§16) 412 serum (FBS). Cells were counted and diluted to 100,000 cells/mL. […]
(§17) 433 fraction was measured by MS (see Mass spectrometry measurements and raw file […]

[2] = test system: Lyn; experiment: Lyn level after FLAG-DCAF10 overexpression; assay type: cell-based, human; conditions: HeLa, NMT1/2 KD 72 h, FLAG-DCAF10 overexpression 24 h
Experimental: as §1, §2, §3, §4, §5, §6, §7, §8, §9, §10, §11, §12, §13, §14, §15, §16, §17

[3] = test system: Lyn; experiment: In vitro ubiquitination of immunoprecipitated Lyn; assay type: biochemical, human; conditions: DCAF10 pocket mutant complex
Source text: (§18) Having established cellular regulation by DCAF10 under reduced N-myristoylation, we aimed to test whether CUL4A-DDB1-DCAF10 directly ubiquitinates SFKs. […] As we expect NMT1/2 depletion to cause a destabilization of SFKs, their equal or even greater ubiquitination in IPs from untreated cells relative to NMT1/2-depleted cells was unanticipated. We speculate that (i) Nt-acetylated SFKs may degrade rapidly, preventing their accumulation upon NMT1/2 depletion; (ii) an acetylated fraction of SFKs may exist under physiological conditions; (iii) DCAF10 might recognize additional surfaces.
(§19) Reactions contained E1, UBCH5B (E2), ubiquitin, Mg-ATP in ligation buffer and were incubated with bead-bound substrates, followed by washing and immunoblot detection of ubiquitinated species (anti-ubiquitin), with loading controls (anti-Lyn, -Fyn, -Src or -GFP) (n = 3 independent enzymatic assays). Complete reagent lists, complex preparation, substrate IP conditions, wash buffers, and gel/blot parameters are provided in the Supplementary Methods and Tables.
(§20) 357 (v/v) glycerol, 2 mM TCEP, supplemented with Protease Inhibitor Cocktail), and lysed
(§21) 358 by sonication. Lysates were cleared by centrifugation at 28,000 rpm for 45 min at 4 °C […]
(§22) 382 EDTA, and loaded on a gradient gel (4–15%). Ubiquitination of substrates was assessed
(§23) 383 by WB using an anti-ubiquitin antibody. Equal substrate loading was evaluated by anti- […]

[4] = test system: Src; experiment: In vitro ubiquitination of immunoprecipitated Src; assay type: biochemical, human; conditions: DCAF10 pocket mutant complex
Source text: as §18, §19, §20, §21, §22, §23

[5] = test system: Fyn; experiment: In vitro ubiquitination of immunoprecipitated Fyn; assay type: biochemical, human; conditions: DCAF10 pocket mutant complex
Source text: as §18, §19, §20, §21, §22, §23

Molecule	THOC7 level (in words) [1]	Lyn level, fold decrease compared to control cells [2]	Lyn ubiquitination (in words) [3]	Src ubiquitination (in words) [4]	Fyn ubiquitination (in words) [5]
FLAG-DCAF10: FLAG-DCAF10 overexpression in HeLa cells (protein, UniProt Q5QP82 1-559, looked up, FLAG tag, FLAG-DCAF10 overexpression in HeLa cells) DDB1- and CUL4-associated …: MFPFGPHSPGGDGSAGAGAEEPTPHEGQAAATGPPSPLHPGADATHPPPPARSPRRPGAPSLSPAPRSGELGLPGAPESSTASAPGEPSPPSPPCRRPGPDCRAKSRGRHGLGAGLGGPGARLFGWLKERSLGRGLFVDPARDNFRTMTSLYGSIHPADSVYLSTRTHGAVFNLEYSPDGSVLTVACEQTEVLLFDPISSKHIKTLSEAHEDCVNNIRFLDNRLFATCSDDTTIALWDLRKLNTKVCTLHGHTSWVKNIEYDTNTRLLVTSGFDGNVIIWDTNRYTEDGCPHKKFFHTRFLMRMRLTPDCSKMLISTSSGYLLILHDLDLTKSLEVGSYPILRARRTTSSSDLTTSSSSSGPRVSGSPCHHSDSNSSEKHMSRASQREGVSPRNSLEVVTPEVLGESDHGNCITSLQLHPKGWATLLRCSSNSDDEECTCVYEFQEGAPVRPVSPRCSLRLTHYIEEANVGRGYIKELCFSPDGRMISSPHGYGIRLLGFDKQCSELVDCLPKEASPLRVIRSLYSHNDVVLTTKFSPTHCQIASGCLSGRVSLYQPKF	remained unchanged	~ 2.1 fold			
DCAF10 triple mutant: DCAF10 triple mutant (F172G, K257A, and I475G) in E3 complex (protein, left off: MBP (as in the WT complex; not said for the mutant), end not stated, state not stated) MFPFGPHSPGGDGSAGAGAEEPTPHEGQAAATGPPSPLHPGADATHPPPPARSPRRPGAPSLSPAPRSGELGLPGAPESSTASAPGEPSPPSPPCRRPGPDCRAKSRGRHGLGAGLGGPGARLFGWLKERSLGRGLFVDPARDNFRTMTSLYGSIHPADSVYLSTRTHGAVGNLEYSPDGSVLTVACEQTEVLLFDPISSKHIKTLSEAHEDCVNNIRFLDNRLFATCSDDTTIALWDLRKLNTKVCTLHGHTSWVANIEYDTNTRLLVTSGFDGNVIIWDTNRYTEDGCPHKKFFHTRFLMRMRLTPDCSKMLISTSSGYLLILHDLDLTKSLEVGSYPILRARRTTSSSDLTTSSSSSGPRVSGSPCHHSDSNSSEKHMSRASQREGVSPRNSLEVVTPEVLGESDHGNCITSLQLHPKGWATLLRCSSNSDDEECTCVYEFQEGAPVRPVSPRCSLRLTHYIEEANVGRGYGKELCFSPDGRMISSPHGYGIRLLGFDKQCSELVDCLPKEASPLRVIRSLYSHNDVVLTTKFSPTHCQIASGCLSGRVSLYQPKF			abolished ubiquitination of Lyn and Fyn	Src ubiquitination was unaffected by the mutations	abolished ubiquitination of Lyn and Fyn
